Test results: patent US20020147306A1, “Peptides that modulate the interaction of B class ephrins and PDZ domains” (priority 1998, published 2002)

Key:
[1] = biological target: T1, GST-FAP-1 PDZ5 binding to ephrin B1 (Homo sapiens, UniProt Q12923); test: Peptide competition of GST-FAP-1 PDZ5 binding to ephrin B1 (GST mixing, immunoblot); settings: peptide 100 μM, lysates of ephrin B1-transfected Cos-1 cells
T1 construct: made in house; ephrin B1: transiently transfected Cos-1 cells (lysate)
T1 sequence (Q12923 1788-1868 limits assumed): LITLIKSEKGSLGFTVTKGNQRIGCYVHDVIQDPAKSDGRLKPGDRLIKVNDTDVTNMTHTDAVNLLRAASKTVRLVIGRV
Protocol: FIGS. 4A and 4B. FAP-1 PDZ5 and syntenin binding to ephrin B1 can be blocked by addition of peptides corresponding to the C-terminal sequence of B ephrins. Peptides of the indicated sequence were included at a concentration of 100 μM in incubations of GST fusion proteins with lysates of Cos-1 cells transfected with ephrin B1. Associated proteins were separated on a 10% polyacrylamide/SDS gel and analyzed by immunoblotting with antibodies against ephrin B1. FIG. 4A, Competition of FAP-1 PDZ5 binding to ephrin B1 using the indicated peptides. A peptide of sequence DHQpYpYND was added at a concentration of 100 μM as a negative control. Immunoprecipitation of ephrin B1 was included as a positive control. FIG. 4B, Peptide competition of the binding of full-length syntenin to ephrin B1.
Cos-1 cells were maintained in DMEM supplemented with 10% fetal bovine serum (FBS). Transient transfections were performed using Lipofectin reagent and Opti-MEM medium (Life Technologies Inc.) as outlined by the manufacturer. To reduce phosphorylation of ephrin B1 by binding to endogenously expressed EphB receptors or by stimulation with serum growth factors, transfected cells were transferred from 10 cm to 15 cm plates 24 h after transfection and serum starved in DMEM 0.5% FBS 12 h prior to cell lysis. […]

GRIP PDZ6 = biological target: T2, GRIP PDZ6 (Mus musculus, UniProt Q925T6); test: Fluorescence polarization binding of fluorescent peptide to GST fusion of GRIP PDZ6
T2 construct: separate GST fusions of GRIP PDZ6 and GRIP PDZ7; made in house
T2 sequence (Q925T6 672-754 limits assumed): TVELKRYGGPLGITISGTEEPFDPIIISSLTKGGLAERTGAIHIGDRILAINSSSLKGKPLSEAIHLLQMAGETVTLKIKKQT
Protocol: (§1) All fluorescence polarization measurements were conducted at 22° C.

GRIP PDZ7 = biological target: T3, GRIP PDZ7 (Mus musculus, UniProt Q925T6); test: Fluorescence polarization binding of fluorescent peptide to GST fusion of GRIP PDZ7
T3 construct: separate GST fusions of GRIP PDZ6 and GRIP PDZ7; made in house
T3 sequence (Q925T6 1003-1085 limits assumed): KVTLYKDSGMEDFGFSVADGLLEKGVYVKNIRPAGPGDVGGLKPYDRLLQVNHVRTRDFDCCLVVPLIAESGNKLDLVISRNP
Protocol: as §1

| Substance | blocking of GST-FAP-1 PDZ5 binding to ephrin B1 [1] | interaction with GST fusion of GRIP PDZ6 (GRIP PDZ6) | interaction with GST fusion of GRIP PDZ7 (GRIP PDZ7) |
| --- | --- | --- | --- |
| DHQpYpYND | did not decrease binding |  |  |
| GNIYYKV [fluorescent B ephrin C-terminal peptide] |  | not detected | not detected |
